The values that follow come from PMC2443151.

Assay [1] deals with PLA2 (phospholipase A2) from Crotalus durissus cascavella rattlesnake venom (Crotalus durissus cascavella).
The target is the same in assay [2]. This is another data set of the same source.

Consider “BTL-2, isolectin from the red marine alga Bryothamnion triquetrum (natural protein)”, for which the aggregation of washed human platelets induced by PLA2 after 30 min incubation with BTL-2, at 1 μg and 3 μg (72.7% and 48.8%), compared to PLA2 alone in assay [1] turned out to be 72.7%. The substance also registered an enzymatic activity of PLA2 on 4-nitro-3-octanoyloxy-benzoic acid after incubation with BTL-2; increase against PLA2 alone in assay [2] of 23%.
